Laboratory results reported in the RNAGym collection of RNA variant scans (doi:10.1073/pnas.2313332121).
This sample holds only a part of the variants without activity.

B1: TPR 5TU (parent)
chain: GGAUCUUCUCGAUCUAACAAAAAAGACAAAUCUGCCACAAAGCUUGAGAGCAUCUUCGGAUGCAGAGGCGGCAGCCUUCGGUGGCGCGAUAGCGCCAACGUUCUCAACUAUGACACGCAAAACGCGUGCUCCGUUGAAUGGAGUUUAUCAUG

Variants of: B1
Test: polymerase ribozyme fitness, log enrichment relative to wild type (log ratio); higher = more active; in vitro selection for triplet polymerase activity
In short: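 PCR was used to build mutant libraries for each subunit of a heterodimeric triplet polymerase ribozyme, which were then transcribed. A single in vitro selection round, in triplicate, used a frozen incubation at −7 °C and recovered extended constructs by gel excision, streptavidin beads and RT-PCR. Fitness is the logarithm of genotype enrichment relative to wild-type enrichment, averaged over replicates with inverse-variance weights. The logarithm is base 2, and after Illumina sequencing only genotypes with ≥10 input reads and ≥1 read per output were kept.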

Variant	polymerase ribozyme fitness (log ratio)
GGAUCUUCUCGAUCUAACAGAAAAGACAAAUCUGCCACAAAGCUUGAGAGCAUCUUCGGAUGCAGAGGCGGCAACCUUCGGUGGCGUGAUAGCGCCAACGCUCUCAUCUAUGACACGCAAAACGCGUGCUCCGUUGAAUGGAGUUUAUCAUG	≤ -4.2
GGAUCUUCUCGAUCUAACAGAAAAGACAAAUCUGCCACAAAGCUUGAGAGCAACUACAGAUGCAGAGGUGGCAGCCUUCGGUGGCGCGAUAGUGCCAACGUUCUCAACUAUGACACGCAAAACGCGUGCUCCGUUGAAUGGAGUUUAUCAUG	-3.35
GGAUCUUCUCGAUCUAACAGAAAAAACAAAUCUGCCACAAAGCUUGAGGGCAUUUUCGGAUGCAGAGGCGGCAGCUUUCGGUGACGCGAUAGCGCCAACGUUCUCAACUAUGACACGCAAAUCGCGUGCUCCGUUGAAUGGAGUGUAUCAUG	≤ -4.2
GGAUCUUCUCGAUCUAACAGAAAAGACAAAUCUGCCACAAAGCUUGAGAGCAUUUUCGGUUGCAGAGGCGGCAGCCUUCGGUGGAGCGAUAGCGCCAACGUUCUCAACUAUGACACGCAAAACGCGUGCUCCGUUGAAUGGAGUUUAUCAUG	-3.42
GGAUCUUCUCGAUCUAACAGAAAAGACAAAUCUGCCACAAAGCUUGAGACCAUGUUCGGAUGCAGAGGCGGCAGCAUUCGGUGGCGGGAGAGCGUCAACGUUCUCAACUAUGACACGCAAAACGCGUGCUCCGUUGAAUGGAGUUUAUCAUG	≤ -4.2
GGAUCUUCUCGAUCUAACAGAAAAGACAAAUCCGCCACAAAGCUUGAGAGCAUCUUCGGAUGCAGAGGCGGCAGCCUUCGGUGGCGUGGUAGCGCCAACGUUCUCAACUAUGACACGCAAAACGCGUGCUCCGUUGAAUGGAGUUUAUCAGG	≤ -4.2
GGAUCUUCUCGAUCUAACAGAAAAAACAAAUCUGCCACAUAGCUUGGCAGCAUCUUCGGAUGCAGAGGCGGCAGCCUUCGGUGGAGCGAUAGCGCCAACGUUCUCAACUAUGACACGCAAAACGCGUGCUCCGUUGAAUGGGGUUUAUCAUG	≤ -4.2
GGAUCUUCUCGAUCUAACAGAAAAGACAAAUCUGCCACAAAGCUUGAGAGCAUGUUCGGAUGCAGAGGCGGCAGCCUUCGGUGGCGCGAUAGCGCUAACGUUCUCAACUAUGACACGCAAAACGCGUGCUCCGUUGAAUGGAGUUUAUCAUG	-2
GGAUCUUCUCGAUCUAACAGAAAAGACAAAUCUGCCACAAAGCUUGAGACCAUGUUCGGAUGCAGAGGCGGCAGCCUUCGGUGGCGCGAUAGCGCCAACGUUCUGUACUAUGACACGCAAAACGCGUGCUCCCUUGAAUGGAGUUUAUCAAG	≤ -4.2
GGAUCUUCUCGAUCUAACAGAAAAGACAAAUCUGCCACAAAGCUUGAGAGCAUCUUCGCAUGCAGAGGCAGCAGCCUUCGGUGGCGCGAUAGCGCCAACGUUCUCAACUAUGACACGCAAAACGCGUGCUCCGUUGAAUGGAGUUUAUCAUG	-4.05
GGAUCUUCUCGAUCUAACAGAAAAGACAAAUCUCCCAAAAAGCUUGAGAGCAUCUUCGGAUGCAGAGGCGGCAGCUUUCGGUGGCGCGACAGCGCCAACGUUCUCAACUAUGAUACGCAAAACGCGUGCUCCGUUGAAUGGAGUUUAUCAUG	≤ -4.2
GGAUCUUCUCGAUCUAACAGAAAAGACAAAUCUGCCACAAAGCUUGAGAGCAUCUUCGGAUGCAGAGGCGGCAGCCUUCGAUGGCGCGAUAGCGCUAACGUUCUCAACUAUGAGACGCAAAACGCGGGCUCCGUUGAAUGGCGUUUAUCAUG	≤ -4.2
GGAUCUUCUCGAUCUAACAGAAAAGACAAAUCUGCCACAAAGCUUGAGAGCAUCUUCGGAUGCAGAGGCCGCAGUCUUCGGUGGCGCGAUAGAGUCAACGUUCUCAACCAUGACACGCAAAACGCGUGCUCCGUUGAAUGGAGUUUAUCAUG	≤ -4.2
GGAUCUUCUCGAUCUAACAGAAAAGACAAAUCUGCCACAAAGCUUGAGAGCAUCUUCGGAUGCAGAGUCGGCAGCCUUCGGUGGUGCGAUAGCGCCAACGUUCUCAACUAUGACACGCAAAACGCGUGCUCCGUUGAAUGGAGUUUAUCAUG	≤ -4.2
GGAUCUUCUCGAUCUAACAGAAAAGACAAAUCUGCCACAAAGCUUGAGAGCAUCUUCGGAUGCAGAGGCGGCAGCCUUCGGUAGCGCCAUAGGGCCAACAUUCUCAACUAUGACACGCAAAACGCGUGCUCCGUUGAAUGGAGUUUAUUAUG	≤ -4.2
GGAUCUUCUCGAUCUAACAGAAAAGACAAAUCUGCCACAAAGUUUGAGAGCAUCUUCGGAUUCAGAGGCGGCAGCCUUCGGUGGCGCGAUGGCGCCAACGUUCUCAACUAUGACACGCAAAACGCGUGCUCCGUUGAAUGGAGUUUAUCAUG	≤ -4.2
GGAUCUUCUCGAUCUAACAGAAAAGACAAAUCUGCCACAAACCUUGAGAGCAUCUUCGGAUGCAGAGGCGGCAGCCUUCGGUGACGCGAUAGCGCCAACGUUCUCAACUAUGACACGCAAAACGCGUGCUCCGUUGAAUGGAGUUUAUAAUG	≤ -4.2
GGAUCUUCUCGAUCUAACAGAAAAGACAAAGCUGCCACAAAGCUUGAGAGCAUCUUCGGAUGCAGAGGCGGCAGCCUUCGGUGGCACGAUAGCGCCAACGUUCUCAACUAUGACACGCAAAACGCGUGCUCCGUUGAAUGGAGUUUAUCAUG	-1.52
GGAUCUUCUCGAUCUAACAGAAAAGACAAAUCUGCCACAAAGCUUGAGAGCAUCUUCGGAUGCAGAGGCGGCAGCCUUCGGUGGCGCGAUAGAGCCAACGUUCUCAACUAUGACACGCAAAACGCGUGCUCGGGUGAAUGGAGUUUAGCAUG	≤ -4.2
